The source of these data is PMC7542595.

Where two headings read alike, the source gives them in different places.

Common to all, as to experiment: fluorescence polarisation
(In general: In fluorescence polarisation assays a small probe gives low polarisation when free and higher when bound to something large.)

The target of experiment [1] is GpIBα-ctp (3), N-fluorescein-labeled C-terminal hexaphosphopeptide of GpIBα.
Experiment [2] concerns the target Task3-ctp (2), N-fluorescein-labeled C-terminal hexaphosphopeptide of Task3.
For experiment [3], the target named is ERα-ctp (1), N-fluorescein-labeled C-terminal hexaphosphopeptide of ERα.
Experiment [4] addresses GpIBα-ctp (3), N-fluorescein-labeled C-terminal hexaphosphopeptide of GpIBα. The source holds these as a separate data set.
Experiment [5] has as its target Task3-ctp (2), N-fluorescein-labeled C-terminal hexaphosphopeptide of Task3. The source holds these as a separate data set.
In experiment [6] the target is ERα-ctp (1), N-fluorescein-labeled C-terminal hexaphosphopeptide of ERα. This is another data set of the same source.

By Kd is commonly meant the constant that tells how readily two partners part at equilibrium. Take “human 14-3-3ε (from UniProt P62258 1-255) (natural protein)”: the Kd in experiment [1] stood at 28000 nM; in experiment [2], 6000 nM; in experiment [3], 3400 nM; in experiment [4] it was 1700 nM; in experiment [5] it was 160 nM.
In the case of “human 14-3-3β (from UniProt P31946 1-246) (natural protein)”, the equilibrium dissociation constant (Kd) in experiment [1] turned out to be 18000 nM; in experiment [2], 2400 nM; in experiment [3], 720 nM; in experiment [4], 870 nM.
Consider “human 14-3-3ζ (from UniProt P63104 1-245) (natural protein)”, for which the Kd in experiment [1] turned out to be 20000 nM; in experiment [2], 1300 nM; in experiment [3] it was 1500 nM.

B1: human 14-3-3τ (natural protein)
chain: MEKTELIQKAKLAEQAERYDDMATCMKAVTEQGAELSNEERNLLSVAYKNVVGGRRSAWRVISSIEQKTDTSDKKLQLIKDYREKVESELRSICTTVLELLDKYLIANATNPESKVFYLKMKGDYFRYLAEVACGDDRKQTIDNSQGAYQEAFDISKKEMQPTHPIRLGLALNFSVFYYEILNNPELACTLAKTAFDEAIAELDTLNEDSYKDSTLIMQLLRDNLTLWTSDSAGEECDAAEGAEN
Consider B1, for which the dissociation constant (Kd) in experiment [1] amounted to 20000 nM; in experiment [2] it was 2200 nM; in experiment [3], 1100 nM; in experiment [6], 130 nM.

B2: human 14-3-3σ (natural protein)
chain: MERASLIQKAKLAEQAERYEDMAAFMKGAVEKGEELSCEERNLLSVAYKNVVGGQRAAWRVLSSIEQKSNEEGSEEKGPEVREYREKVETELQGVCDTVLGLLDSHLIKEAGDAESRVFYLKMKGDYYRYLAEVATGDDKKRIIDSARSAYQEAMDISKKEMPPTNPIRLGLALNFSVFHYEIANSPEEAISLAKTTFDEAMADLHTLSEDSYKDSTLIMQLLRDNLTLWTADNAGEEGGEAPQEPQS
Consider B2, for which the values for the Kd in experiment [1], in experiment [2] and in experiment [3] were 47000 nM, 2100 nM and 6600 nM, respectively.
